From US20150147316A1 (Seagen, published 2015)
Changes are numbered by the printed parent chain.

How the values were obtained:
human CD33 [1] = target: T1, human CD33 (human, UniProt P20138 18-364); assay: cell-based or functional assay
human CD33 [2] = target: T1, human CD33; assay: cell-based or functional assay; remark: listed apart in the source
human CD33 [3] = target: T1, human CD33; assay: flow cytometry on HEL 92.1.7 AML cells

T1 sequence (P20138 18-364): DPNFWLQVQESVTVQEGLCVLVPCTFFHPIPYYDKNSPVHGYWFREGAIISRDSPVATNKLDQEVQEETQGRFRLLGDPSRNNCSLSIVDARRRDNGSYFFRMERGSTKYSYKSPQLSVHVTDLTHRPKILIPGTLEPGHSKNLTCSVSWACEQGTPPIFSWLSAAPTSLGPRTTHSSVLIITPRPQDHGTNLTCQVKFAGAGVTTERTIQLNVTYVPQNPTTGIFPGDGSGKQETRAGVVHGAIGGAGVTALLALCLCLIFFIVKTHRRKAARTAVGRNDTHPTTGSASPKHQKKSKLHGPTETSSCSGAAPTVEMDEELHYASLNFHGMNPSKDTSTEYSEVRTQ

B1: h2H12EC-SGD-1910 (other)
VH: QVQLVQSGAEVKKPGASVKVSCKASGYTFTNYDINWVRQAPGQGLEWIGWIYPGDGSTKYNEKFKAKATLTADTSTSTAYMELRSLRSDDTAVYYCASGYEDAMDYWGQGTTVTVSS
VL: DIQMTQSPSSLSASVGDRVTINCKASQDINSYLSWFQQKPGKAPKTLIYRANRLVDGVPSRFSGSGSGQDYTLTISSLQPEDFATYYCLQYDEFPLTFGGGTKVEIK
modifications: drug-linker SGD-1910 (pyrrolobenzodiazepine dimer) on the cysteine introduced at position 239 of the IgG1 chain, average about 2 drugs per antibody
In the case of B1, the “IC50 (ng/mL), cytotoxicity on HEL 92.1.7 cells” value (human CD33 [1]) is reported as 7 ng/mL, the “IC50 (ng/mL), cytotoxicity on HL-60 cells” value (human CD33 [1]) is reported as 1 ng/mL and the “IC50 (ng/mL), cytotoxicity on KG-1 cells” value (human CD33 [1]) is reported as 3 ng/mL. The “IC50 (ng/mL), cytotoxicity on MV4-11 cells” value (human CD33 [1]) was 0.1 ng/mL, the “IC50 (ng/mL), cytotoxicity on TF1-α cells” value (human CD33 [1]) was 49 ng/mL and the “IC50 (ng/mL), cytotoxicity on TF-1 cells” value (human CD33 [1]) was 61 ng/mL. For the same binder, the “IC50 (ng/mL), cytotoxicity on U937 cells” value (human CD33 [1]) was 22 ng/mL, the “IC50, cytotoxicity on HEL 92.1.7 cells (96 h, CelltiterGlo)” value (human CD33 [2]) was about 12.9 ng/mL and the “IC50, cytotoxicity on HL-60 cells (96 h, CelltiterGlo)” value (“IC50, cytotoxicity on HL-60 cells” below) (human CD33 [2]) was about 1.6 ng/mL. For the same binder, the “mean IC50 over 7 of 7 AML cell lines, cytotoxicity” value (human CD33 [2]) was 20.4 ng/mL.

B2: h2H12-SGD-1269 (other)
VH: B1 VH
VL: B1 VL
modifications: drug-linker SGD-1269 (mcMMAF) on thiol groups of interchain disulfide cysteines, average about 4 drugs per antibody
With B2 the “IC50 (ng/mL), cytotoxicity on HEL 92.1.7 cells” value (human CD33 [1]) was over 1000 ng/mL, the “IC50 (ng/mL), cytotoxicity on HL-60 cells” value (human CD33 [1]) was 2 ng/mL and the “IC50 (ng/mL), cytotoxicity on KG-1 cells” value (human CD33 [1]) was 270 ng/mL. The “IC50 (ng/mL), cytotoxicity on MV4-11 cells” value (human CD33 [1]) was 0.1 ng/mL, the “IC50 (ng/mL), cytotoxicity on TF1-α cells” value (human CD33 [1]) was over 1000 ng/mL and the “IC50 (ng/mL), cytotoxicity on TF-1 cells” value (human CD33 [1]) was over 1000 ng/mL. The “IC50 (ng/mL), cytotoxicity on U937 cells” value (human CD33 [1]) was 19 ng/mL, the “IC50, cytotoxicity on HL-60 cells” value (human CD33 [2]) was 5.3 ng/mL and the “mean IC50 for responsive AML cell lines (4 of 7), cytotoxicity” value (human CD33 [2]) was 72.8 ng/mL.

B3: HAcL (antibody, V domains shown)
VH: B1 VH with I48M, K67R, A68V, L70M, A72T, S98R
VL: DIKMTQSPSSMYASLGERVIINCKASQDINSYLSWFQQKPGKSPKTLIYRANRLVDGVPSRFSGSGSGQDYSLTISSLEYEDMGIYYCLQYDEFPLTFGAGTKLELK
notes: Hybrid of humanized heavy chain HA and the chimeric light chain (murine VL, human constant region)
B3: no binding (tested: 0.03 nM to 600 nM (methods)) (human CD33 [3]).

B4: HHcL (antibody, V domains shown)
VH: B1 VH with I48M, K67R, A68V, L70M, A72T, R84S, R87T, S98R
VL: B3 VL
notes: Hybrid of humanized heavy chain HH and the chimeric light chain (murine VL, human constant region)
B4: no binding (tested: 0.03 nM to 600 nM (methods)) (human CD33 [3]).

B5: HGcL (antibody, V domains shown)
VH: B1 VH with I48M, A72T, S98R
VL: B3 VL
notes: Hybrid of humanized heavy chain HG and the chimeric light chain (murine VL, human constant region)
B5: no binding (tested: 0.03 nM to 600 nM (methods)) (human CD33 [3]).

B6: HDcL (antibody, V domains shown)
VH: B1 VH with I48M, K67R, A68V, L70M, A72T, T74K, S98R
VL: B3 VL
notes: Hybrid of humanized heavy chain HD and the chimeric light chain (murine VL, human constant region)
B6: no binding (tested: 0.03 nM to 600 nM (methods)) (human CD33 [3]).

B7: HFcL (antibody, V domains shown)
VH: B1 VH with R38N, A40R, I48M, K67R, A68V, L70M, A72T, S98R
VL: B3 VL
notes: Hybrid of humanized heavy chain HF and the chimeric light chain (murine VL, human constant region)
B7: no binding (tested: 0.03 nM to 600 nM (methods)) (human CD33 [3]).

B8: HBcL (antibody, V domains shown)
VH: B1 VH with I48M, K67R, A68V, L70M, S98R
VL: B3 VL
notes: Hybrid of humanized heavy chain HB and the chimeric light chain (murine VL, human constant region)
B8: no binding (tested: 0.03 nM to 600 nM (methods)) (human CD33 [3]).

B9: HEcL (antibody, V domains shown)
VH: B1 VH with K67R, A68V, L70M, A72T, S98R
VL: B3 VL
notes: Hybrid of humanized heavy chain HE and the chimeric light chain (murine VL, human constant region)
B9: no binding (tested: 0.03 nM to 600 nM (methods)) (human CD33 [3]).

B10: m2H12-SGD-1269 (other)
VH: QVQLQQSGPELVRPGTFVKISCKASGYTFTNYDINWVNQRPGQGLEWIGWIYPGDGSTKYNEKFKAKATLTADKSSSTAYLQLNNLTSENSAVYFCASGYEDAMDYWGQGTSVTVSS
VL: B3 VL
modifications: conjugated to drug-linker SGD-1269 (mcMMAF); sites and load not stated for the murine antibody
In the case of B10, the “IC50, cytotoxicity on HL-60 cells” value (human CD33 [2]) is reported as 1.3 ng/mL.
